Laboratory results taken from article PMC4251702, “Plasmodium falciparum aldolase and the C-terminal cytoplasmic domain of certain apical organellar proteins promote actin polymerization” (Molecular and Biochemical Parasitology, 2014).

Experiments:
[1] = target: rabbit muscle G-actin, biotinylated (rabbit, UniProt P68135 1-377); test: BLI; details: both partners purified
[2] = target: rabbit muscle F-actin, biotinylated (rabbit, UniProt P68135 1-377); test: BLI; details: both partners purified

B1: Plasmodium falciparum aldolase (enzyme)
chain: MAHCTEYMNAPKKLPADVAEELATTAQKLVQAGKGILAADESTQTIKKRFDNIKLENTIENRASYRDLLFGTKGLGKFISGAILFEETLFQKNEAGVPMVNLLHNENIIPGIKVDKGLVNIPCTDEEKSTQGLDGLAERCKEYYKAGARFAKWRTVLVIDTAKGKPTDLSIHETAWGLARYASICQQNRLVPIVEPEILADGPHSIEVCAVVTQKVLSCVFKALQENGVLLEGALLKPNMVTAGYECTAKTTTQDVGFLTVRTLRRTVPPALPGVVFLSGGQSEEEASVNLNSINALGPHPWALTFSYGRALQASVLNTWQGKKENVAKAREVLLQRAEANSLATYGKYKGGAGGENAGASLYEKKYVY
notes: also called Pf aldolase; recombinant Pf aldolase; source: E. coli BL21 (pGEX-5X), purified, GST tag removed
- Kd [1]: 330 nM
- Kd [2]: 365 nM
